What was measured:
[1] = target: HaloTag[22-297](Q145H+P154R)-6×His; assay: purified system, 80 nM large fragment, peptide titration, TMR ligand
[2] = target: T1, HaloTag[22-297](Q145H+P154R); assay: apparent affinity from peptide titration of the large fragment in E. coli lysate, JF646 fluorescence complementation; signal approaches saturation
T1 construct: also called LgHT variant

HaloTag[22-297](M2F) = target: T2, HaloTag[22-297](M2F); assay: apparent affinity from peptide titration (up to 1 mM) of the large fragment in E. coli lysate, JF646 fluorescence complementation; signal did not saturate
T2 construct: also called LgHT (M2F variant); Large HaloTag
T2 sequence (chain, as listed by the source): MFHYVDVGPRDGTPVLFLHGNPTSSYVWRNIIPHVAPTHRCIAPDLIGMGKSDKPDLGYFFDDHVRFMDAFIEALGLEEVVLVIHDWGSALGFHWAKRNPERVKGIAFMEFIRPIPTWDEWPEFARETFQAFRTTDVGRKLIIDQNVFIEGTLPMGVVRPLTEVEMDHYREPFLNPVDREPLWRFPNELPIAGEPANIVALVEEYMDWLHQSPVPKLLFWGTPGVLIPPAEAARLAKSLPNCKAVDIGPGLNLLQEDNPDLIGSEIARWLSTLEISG

T1 sequence (chain, as listed by the source Q145H P154R Q145H P154R): as the sequence (chain, as listed by the source) above, with F2M, Q145H, P154R counted along it
HaloTag[22-297](Q145H+P154R)-6×His, sequence (chain, as listed by the source Q145H P154R Q145H P154R): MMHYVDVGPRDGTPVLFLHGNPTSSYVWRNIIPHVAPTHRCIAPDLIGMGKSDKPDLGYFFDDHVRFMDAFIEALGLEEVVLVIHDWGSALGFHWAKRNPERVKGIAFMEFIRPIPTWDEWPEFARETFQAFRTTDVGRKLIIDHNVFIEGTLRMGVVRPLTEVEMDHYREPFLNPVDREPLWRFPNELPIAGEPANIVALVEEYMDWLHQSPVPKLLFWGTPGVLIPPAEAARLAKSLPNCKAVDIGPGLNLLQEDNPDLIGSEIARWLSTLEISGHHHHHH

- binding result [1]: binds
- Kd [2]: ~1 µM
- Kd (HaloTag[22-297](M2F)): > 100 µM
Binder: EIGTGFPFDPHYVEVLG (also called HT(3-19); SmHT) [synthetic HaloTag[3-19] peptide]

— patent US20240174992A1 (PROMEGA, published 2024)
